Non-standard residues stand in square brackets, D forms with d. No end group written: not given here. *: point of attachment. Biotin = O=C1N[C@H]2[C@H](CS[C@H]2CCCCC(=O)*)N1; Bpa = N[C@@H](Cc1ccc(C(=O)c2ccccc2)cc1)C(=O)O; Tyr(3-I) = N[C@@H](Cc1ccc(O)c(I)c1)C(=O)O; Tic = O=C(O)[C@@H]1Cc2ccccc2CN1; Ac6c = NC1(C(=O)O)CCCCC1
These binders were tested against human insulin receptor (HIR) (human, UniProt P06213 28-1382, limits assumed) (assay: 125I-insulin competition, solubilised HIR).

| Binder | Kd [nM] |
| --- | --- |
| SLEEEWAQVECEV[Bpa]GRGCPSGSLDESFYDWFERQ[Bpa]GK(Biotin) (not fully specified (bridges); printed as SLEEEWAQVECEV-Bpa-GRGCPSGSLDESFYDWFERQ-Bpa-GK(Biotin); cysteine pairing not given here) [S546] | 26 |
| SLEEEWAQIESEVWGRSESFYDWFERQLG [S573] | 0.036 |
| LEEEWAQIECEV[Tyr(3-I)]GRGCSGSLDESFYDWFERQLG (cysteine pairing not given here) [S590] | 0.058 |
| LEEEWAQIECEVWGRGCSGSLDESF[Tyr(3-I)]DWFERQLG (not fully specified (bridges); printed as LEEEWAQIECEVWGRGCSGSLDESF-IodoTyr-DWFERQLG; cysteine pairing not given here) [S591] | 0.13 |
| LEEEWAQVECEV[Tyr(3-I)]GRGCSGSLDESFYDWFERQLG (cysteine pairing not given here) [S588] | 0.18 |
| H[Ac6c]CAQE[dW]GSEL[Tic]QCSGSESFYDWFERQL (not fully specified (bridges); printed as H-Acy-CAQEwGSEL-Tic-QCSGSESFYDWFERQL; cysteine pairing not given here, leading H- read as His; it may mean a free N-terminus) [S527] | 2.4 |
| SLEEEWAQIEEVWGRSESFYDWFERQLG [S572] | 4.8 |
| SLEEEWAQIECEVWGRGCPKGFYGWFRRRG [S582] | 2.5 |
| SLEEEWAQIECEVWGRGCPKGFYGWFRRRRG [S584] | 9.3 |
| SLEEEWAQIEEVWGRPSESFYDWFERQLG [S570] | 0.73 |
| SLEEEWAQIEEVWGRGSESFYDWFERQLG [S571] | 1.6 |
| SLEEEWAQVECEVYGRGCPSFYDWFERQL [S531] | 0.075 |
| SLEEEWAQIQCEVWGRCSESFYDWFERQL [S564] | 0.013 |
| SLEEEWAQIEEVWGRGPSESFYDWFERQLG (label printed as 3569; also called 3569) [S569] | 0.15 |
| GSLDESFYDWFERQLGK (N-terminal acetyl; POX (not explained) between G16 and K17) [S550] | 40 |
| SLEEEWAQIECEVWGRGCPSY [S592] | 1.7 |
| HHHHHHKLDQEWAWVQCEVYGRGCPSESFYDWFERQLG [S481] | 13 |
| SLEEEWAQIECEVWGRGCSGSLDESFYDWFERQL [S561] | 0.015 |
| Ac-SIEEEWAQIKCDVWGRGPSESFYDWFERQLG [S568] | 0.0043 |
| SLEEEWAQIECEVWGRGCSESFYDWFERQL [S559] | 0.021 |
| SLEEEWAQIQCEVWGR[dN][dC]SESFYDWFERQL (cysteine pairing not given here) [S563] | 0.014 |

| Binder | Kd [nM] |
| --- | --- |
| SIEEEWAQIKCDVWGRGCSESFYDWFERQL [S556] | 0.032 |
| SLEEEWAQIECEVYGRGCPSESFYDWFERQL [S557] | 0.02 |
| SLEEEWAWVQCEVYGRGCPSESFYDWFERQL [S534] | 0.01 |
| SLEEEWAQIQCEVWGRGCPSESFYDWFERQL [S606] | 0.004 |
| SIEEEWAQIKCDVWGRGCPSESFYDWFERQL [S517] | 0.6 |
| SLEEEWAQIECEVWGRGCPSESFYDWFERQL [S558] | 0.019 |
| SLEEEWAQVECEVYGRGCPSESFYDWFERQL [S530] | 0.008 |
| SLEEEWAQVECEVYGRGCXESFYDWFERQLG (not fully specified; X19 = βturn (unit not explained)) [S580] | 0.012 |
| SLEEEWAQVECEVYGRGCSGSLDESFYDWFERQLG [S549] | 0.013 |
| SLEEEWAQIESEVWGRXESFYDWFERQLG (X17 = βturn (unit not explained)) [S581] | 0.012 |
| SLEEEWAQIECEVYGRGCPSESFYDWFERQLG [S554] | 0.0064 |
| SLEEEWAQIEAEVWGRGAPSESFYDWFERQLG [S574] | 0.0092 |
| SLEEEWAQVECEVYGRGCPSESFYDWF[dV]RQLG (cysteine pairing not given here) [S555] | 0.057 |
| SLEEEWAQVECEVYGRGCPPGLLDESFYHWFDRQLR [S553] | 0.0073 |
| SLEEEWAWVECEVYGRGCPSGSLDESFYDWFERQL [S532] | 0.037 |
| SIEEEWAQIKCDVWGRCSESFYDWFERQL [S562] | 0.018 |
| Ac-SIEEEWAQIKCDVWGRGSESFYDWFERQL [S600] | 0.0076 |
| WLDQEWAWVQCEVYGRGCPSDSDWAGYEWFEEQLD [S523] | 4.3 |
| SLEEEWAQVECEVYGRGCPS [S547] | 49 |
| SLEEEWAQVECEVWGRGCPS [S548] | 4.1 |

Source: patent US20030236190A1 (published 2003)
